# In patent publication US20110200608A1 (UNIVERSITY OF PITTSBURGH OF THE COMMONWEALTH SYSTEM OF …, published 2011):
# Bridges are numbered along the chain shown (N, C = ends). Where no end group is shown, it is not given here.
# Assays:
# [1] = biological target: T1, HMW-MAA-specific human scFv C21 (biotinylated (NHS-LC-biotin) in the competition and panning assays); assay: SPR (Biacore 3000, 25 C), peptide over amine-coupled scFv C21, koff/kon
# [2] = biological target: T1, HMW-MAA-specific human scFv C21; assay: SPR (Biacore 3000, 25 C), peptide over amine-coupled scFv C21, 1:1 Langmuir fit
# [3] = biological target: T1, HMW-MAA-specific human scFv C21; assay: calculated from a molecular docking model (…); not measured
# [4] = biological target: T1, HMW-MAA-specific human scFv C21; assay: inhibition cell ELISA: peptide incubated 2 h at 4 °C with PP scFv C21 (1:1600) and biotinylated mAb 9E10, then added to Colo38 cells, SA-HRP; blocked ligand: HMW-MAA on Colo38 cells
# T1 sequence (chain, as listed by the source): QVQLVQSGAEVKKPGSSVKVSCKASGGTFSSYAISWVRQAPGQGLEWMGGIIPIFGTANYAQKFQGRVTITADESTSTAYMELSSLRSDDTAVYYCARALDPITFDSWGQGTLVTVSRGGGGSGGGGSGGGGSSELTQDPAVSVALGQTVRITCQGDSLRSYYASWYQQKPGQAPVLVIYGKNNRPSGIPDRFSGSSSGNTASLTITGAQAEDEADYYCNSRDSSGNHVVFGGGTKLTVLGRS
Kd [1] [µM],koff [2] [s⁻¹],kon [2] [M⁻¹ s⁻¹],Total Energy (calculated binding energy) [3] [kcal/mol],IC50 (read off the curve) [4] [µM],Binder
30.2,0.0655,2170,-7.3,~1,"RPYRYDPLGDLKSRH [peptide P3C21 (RPYRYDPLGDLKSRH), linear]"
3.34,0.00307,917,-16.4,–,RPYRYDPLGSLKSRH [peptide P3S10 (RPYRYDPLGSLKSRH)]
8.24,0.0097,1180,-93.8,~3,"SPSWYCPDCDKRPLV (disulfide 6-9 (inferred), Synthetic peptide) [peptide P1C21 (SPSWYCPDCDKRPLV), cyclized]"
